IntAct's records for PubMed 21236256

B1: Actin filament-associated protein 1 (Gallus gallus (Chicken)), Q90738 (parent)
chain: MEELIVELRLFLELLDHEYLTSTVREKKAVITNILLRIQSSKGFEIKEHVQKPEVANSLPAPPQMPLPEIPQQWLPPDNGPPPLPTSSLPEGYYEEAVPVSPGKAPEYITSNYDSDAMSSSYESYDEEEEDGKGKKMRHQWPSEEASMDLVKDAKICAFLLRKKRFGQWTKLLCVIKENKLLCYKSSKDQQPQMELLLNDCSITYIPKDSKKKKHELKISHQGADALVLAVQSKEQAEQWLKVIKDVCSNCTGTVDSDGPLSSSPVHKTELEKKLSSERPSSDGEGAVENGITTVCNGKEQVKRKKSSKTEAKGTVTKVTGKKITKIIGLGKKKPSTDEQTSSAEEDVPTCGYLNVLSNNRWRERWCRVKDNKLIFHKDRTDLKTHIVSIPLRGCEVIPGLDSKHPLTFRLLRNGQEVAVLEASSSEDMGRWIGMLLAETGSSTDPGALHYDYIDVEMTASVIQAAKQTFCFMNRRVISTNPYRGSTANGYACPSGMALHYDDVPCINGSFKGKKPPATANGITGKVRTLNSQPKKPESVSCVKRTASNAEQYKYGKNRVEAVAKRLQSKEEELLKRKEALRNRLAQLRKERKDLRAAIEVNAGRKTQVILEDKLKKLEEECKTKEAERVNLELELTEVKESLKKALAGGITLGLAIEPKSGTSSPQSPIFKHRTLENSPISSCDTSDTECSIPVNSAAALKRPPSSNNSPCRGHVLRKAKEWEMKNGT

Variants of: B1
Conditions: with src_chick SRC

Row | Variant | effect of a mutation on the interaction
1 | P71A | decreasing interaction
